Reference: patent US20220411483A1 (Chugai, published 2022)

T1: FcγRIIb extracellular domain with C-terminal His tag (human, UniProt P31994 43-217)
T1 construct: extracellular domain; also called FcgRIIb; not shown: His tag at the C terminus
T1 sequence (looked up): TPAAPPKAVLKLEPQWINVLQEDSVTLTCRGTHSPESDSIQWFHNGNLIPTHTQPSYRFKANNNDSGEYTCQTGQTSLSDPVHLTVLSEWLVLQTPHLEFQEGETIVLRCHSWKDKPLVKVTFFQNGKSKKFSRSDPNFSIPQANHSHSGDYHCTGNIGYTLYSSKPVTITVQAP

T2: FcγRIIa R type extracellular domain with C-terminal His tag (human, UniProt P12318 34-217)
T2 construct: extracellular domain; also called FcgRIIaR; not shown: His tag at the C terminus
T2 sequence (looked up): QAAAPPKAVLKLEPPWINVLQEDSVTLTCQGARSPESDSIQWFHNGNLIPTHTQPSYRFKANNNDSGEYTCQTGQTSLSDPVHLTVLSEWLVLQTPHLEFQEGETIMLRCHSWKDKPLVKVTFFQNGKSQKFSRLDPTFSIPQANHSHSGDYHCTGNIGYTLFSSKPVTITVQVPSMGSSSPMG

T3: FcgRIIaR (human, UniProt P12318 34-217)
T3 construct: extracellular domain; also called FcγRIIa R type; FcγRIIa (R type)
T3 sequence (looked up): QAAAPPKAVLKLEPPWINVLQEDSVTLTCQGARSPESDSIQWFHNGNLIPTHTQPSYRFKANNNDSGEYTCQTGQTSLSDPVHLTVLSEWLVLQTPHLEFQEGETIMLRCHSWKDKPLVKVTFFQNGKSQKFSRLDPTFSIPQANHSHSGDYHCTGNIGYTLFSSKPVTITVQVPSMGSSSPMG

T4: FcgRIIb (human, UniProt P31994 43-217)
T4 construct: extracellular domain; also called FcγRIIb
T4 sequence (looked up): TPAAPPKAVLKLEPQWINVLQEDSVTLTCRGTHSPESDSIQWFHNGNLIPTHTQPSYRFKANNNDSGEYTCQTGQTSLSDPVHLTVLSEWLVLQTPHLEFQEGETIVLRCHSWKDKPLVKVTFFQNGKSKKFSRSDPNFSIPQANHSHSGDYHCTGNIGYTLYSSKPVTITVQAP


Experiments:
[1] = biological target: T1, FcγRIIb extracellular domain with …; experiment: SPR; KD of IL6R-B3/IL6R-L divided by KD of variant
[2] = biological target: T2, FcγRIIa R type extracellular domain …; experiment: SPR; KD of IL6R-B3/IL6R-L divided by KD of variant
[3] = biological target: T1, FcγRIIb extracellular domain with …; experiment: SPR, antibody captured, FcgR analyte
[4] = biological target: T2, FcγRIIa R type extracellular domain …; experiment: SPR, antibody captured, FcgR analyte
[5] = biological target: T5, FcγRIa extracellular domain with C-terminal His tag (human, UniProt P12314 16-292); experiment: SPR, antibody captured, FcgR analyte
T5 construct: also called FcgRIa; CD64; not shown: His tag at the C terminus
T5 sequence (P12314 16-292): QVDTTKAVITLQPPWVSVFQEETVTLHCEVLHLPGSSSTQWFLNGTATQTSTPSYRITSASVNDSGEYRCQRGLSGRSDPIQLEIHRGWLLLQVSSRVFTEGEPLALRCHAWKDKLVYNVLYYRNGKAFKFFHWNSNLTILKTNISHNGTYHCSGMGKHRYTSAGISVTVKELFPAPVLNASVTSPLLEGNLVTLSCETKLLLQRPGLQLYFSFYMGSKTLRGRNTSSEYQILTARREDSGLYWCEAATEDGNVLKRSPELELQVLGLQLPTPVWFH

FcgRIIaR = biological target: T3, FcgRIIaR; experiment: SPR, amount bound per captured antibody
FcgRIIb = biological target: T4, FcgRIIb; experiment: SPR, amount bound per captured antibody

Binder | Relative FcgRIIb-binding Activity [1] | Relative FcgRIIaR-binding Activity [2] | Kd [3] [nM] | Kd [4] [nM] | Kd [5] [nM] | Relative FcgRIIaR-binding Activity (FcgRIIaR) [IL6R-G1d/IL6R-L=100] | Relative FcgRIIb-binding Activity (FcgRIIb) [IL6R-G1d/IL6R-L=100]
IL6R-BP262/IL6R-L (antibody, human IgG1, kappa, name in EU numbering, human IgG1) heavy: QVQLQESGPGLVKPSETLSLTCAVSGHSISHDHAWSWVRQPPGEGLEWIGFISYSGITNYNPSLQGRVTISRDNSKNTLYLQMNSLRAEDTAVYYCARSLARTTAMDYWGEGTLVTVSSASTKGPSVFPLAPSSKSTSGGTAALGCLVKDYFPEPVTVSWNSGALTSGVHTFPAVLQSSGLYSLSSVVTVPSSSLGTQTYICNVNHKPSNTKVDKKVEPKSCDKTHTCPPCPAPELLGDDSVFLFPPKPKDTLMISRTPEVTCVVVDVSEEDGEVKFNWYVDGVEVHNAKTKPREEQYNSTYRVVSVLTVLHQDWLNGKEYKCKVSNKALPAPIEKTISKAKGQPREPQVYTLPPSRDELTKNQVSLTCLVKGFYPSDIAVEWESNGQPENNYKTTPPVLDSDGSFFLYSKLTVDKSRWQQGNVFSCSVMHEALHNHYTQESLSLSP light: not shown | 25.8 | 0.5 | 120 | 2000 | 10 |  | 
IL6R-P697/IL6R-L (antibody, human IgG1, kappa) heavy: QVQLQESGPGLVKPSETLSLTCAVSGHSISHDHAWSWVRQPPGEGLEWIGFISYSGITNYNPSLQGRVTISRDNSKNTLYLQMNSLRAEDTAVYYCARSLARTTAMDYWGEGTLVTVSSASTKGPSVFPLAPSSKSTSGGTAALGCLVKDYFPEPVTVSWNSGALTSGVHTFPAVLQSSGLYSLSSVVTVPSSSLGTQTYICNVNHKPSNTKVDKKVEPKSCDKTHTCPPCPAPDLLGKDSVFLFPPKPKDTLMISRTPEVTCVVIDVREEDGEVKFNWYVDGVEVHNAKTKPREEQYNSTYRVVSVLTVLHQDWLNGKEYKCKVSNKALPAPIEKTISKAKGQPREPQVYTLPPSRDELTKNQVSLTCLVKGFYPSDIAVEWESNGQPENNYKTTPPVLDSDGSFFLYSKLTVDKSRWQQGNVFSCSVMHEALHNHYTQKSLSLSP light: not shown |  |  |  |  |  | 3.6 | 28.7
IL6R-P696/IL6R-L (antibody, human IgG1, kappa) heavy: QVQLQESGPGLVKPSETLSLTCAVSGHSISHDHAWSWVRQPPGEGLEWIGFISYSGITNYNPSLQGRVTISRDNSKNTLYLQMNSLRAEDTAVYYCARSLARTTAMDYWGEGTLVTVSSASTKGPSVFPLAPSSKSTSGGTAALGCLVKDYFPEPVTVSWNSGALTSGVHTFPAVLQSSGLYSLSSVVTVPSSSLGTQTYICNVNHKPSNTKVDKKVEPKSCDKTHTCPPCPAPDLLGRDSVFLFPPKPKDTLMISRTPEVTCVVIDVREEDGEVKFNWYVDGVEVHNAKTKPREEQYNSTYRVVSVLTVLHQDWLNGKEYKCKVSNKALPAPIEKTISKAKGQPREPQVYTLPPSRDELTKNQVSLTCLVKGFYPSDIAVEWESNGQPENNYKTTPPVLDSDGSFFLYSKLTVDKSRWQQGNVFSCSVMHEALHNHYTQKSLSLSP light: not shown |  |  |  |  |  | 6.1 | 73.7
IL6R-BP483/IL6R-L (antibody, human IgG1, kappa, name in EU numbering, human IgG1) heavy: QVQLQESGPGLVKPSETLSLTCAVSGHSISHDHAWSWVRQPPGEGLEWIGFISYSGITNYNPSLQGRVTISRDNSKNTLYLQMNSLRAEDTAVYYCARSLARTTAMDYWGEGTLVTVSSASTKGPSVFPLAPSSKSTSGGTAALGCLVKDYFPEPVTVSWNSGALTSGVHTFPAVLQSSGLYSLSSVVTVPSSSLGTQTYICNVNHKPSNTKVDKKVEPKSCDKTHTCPPCPAPDLLGDDSVFLFPPKPKDTLMISRTPEVTCVVVDLAEEDGEVKFNWYVDGVEVHNAKTKPREEQYNSTYRVVSVLTVLHQDWLNGKEYKCKVSNKALPAPIEKTISKAKGQPREPQVYTLPPSRDELTKNQVSLTCLVKGFYPSDIAVEWESNGQPENNYKTTPPVLDSDGSFFLYSKLTVDKSRWQQGNVFSCSVMHEALHNHYTQESLSLSP light: not shown | 39.6 | 0.8 | 78 | 1300 | 1.3 |  | 
IL6R-P701/IL6R-L (antibody, human IgG1, kappa) heavy: QVQLQESGPGLVKPSETLSLTCAVSGHSISHDHAWSWVRQPPGEGLEWIGFISYSGITNYNPSLQGRVTISRDNSKNTLYLQMNSLRAEDTAVYYCARSLARTTAMDYWGEGTLVTVSSASTKGPSVFPLAPSSKSTSGGTAALGCLVKDYFPEPVTVSWNSGALTSGVHTFPAVLQSSGLYSLSSVVTVPSSSLGTQTYICNVNHKPSNTKVDKKVEPKSCDKTHTCPPCPAPDNLGGDSVFLFPPKPKDTLMISRTPEVTCVVIDVREEDGEVKFNWYVDGVEVHNAKTKPREEQYNSTYRVVSVLTVLHQDWLNGKEYKCKVSNKALPAPIEKTISKAKGQPREPQVYTLPPSRDELTKNQVSLTCLVKGFYPSDIAVEWESNGQPENNYKTTPPVLDSDGSFFLYSKLTVDKSRWQQGNVFSCSVMHEALHNHYTQKSLSLSP light: not shown |  |  |  |  |  | 7 | 47.6
IL6R-BP269/IL6R-L (antibody, human IgG1, kappa, name in EU numbering, human IgG1) heavy: QVQLQESGPGLVKPSETLSLTCAVSGHSISHDHAWSWVRQPPGEGLEWIGFISYSGITNYNPSLQGRVTISRDNSKNTLYLQMNSLRAEDTAVYYCARSLARTTAMDYWGEGTLVTVSSASTKGPSVFPLAPSSKSTSGGTAALGCLVKDYFPEPVTVSWNSGALTSGVHTFPAVLQSSGLYSLSSVVTVPSSSLGTQTYICNVNHKPSNTKVDKKVEPKSCDKTHTCPPCPAPELLGDDSVFLFPPKPKDTLMISRTPEVTCVVVDVSEEDGEVKFNWYVDGVEVHNAKTKPREEQDNSTYRVVSVLTVLHQDWLNGKEYKCKVSNKALPAPIEKTISKAKGQPREPQVYTLPPSRDELTKNQVSLTCLVKGFYPSDIAVEWESNGQPENNYKTTPPVLDSDGSFFLYSKLTVDKSRWQQGNVFSCSVMHEALHNHYTQESLSLSP light: not shown | 27.3 | 0.5 | 110 | 2200 | 14 |  | 

Further lines, results first:

Relative FcgRIIb-binding Activity [1] | Relative FcgRIIaR-binding Activity [2] | Kd [3] [nM] | Kd [4] [nM] | Kd [5] [nM] | Relative FcgRIIaR-binding Activity (FcgRIIaR) [IL6R-G1d/IL6R-L=100] | Relative FcgRIIb-binding Activity (FcgRIIb) [IL6R-G1d/IL6R-L=100] | Binder
55.3 | 1.2 | 56 | 900 | 5.3 |  |  | IL6R-BP479/IL6R-L (antibody, human IgG1, kappa, name in EU numbering, human IgG1) heavy: QVQLQESGPGLVKPSETLSLTCAVSGHSISHDHAWSWVRQPPGEGLEWIGFISYSGITNYNPSLQGRVTISRDNSKNTLYLQMNSLRAEDTAVYYCARSLARTTAMDYWGEGTLVTVSSASTKGPSVFPLAPSSKSTSGGTAALGCLVKDYFPEPVTVSWNSGALTSGVHTFPAVLQSSGLYSLSSVVTVPSSSLGTQTYICNVNHKPSNTKVDKKVEPKSCDKTHTCPPCPAPDLLGDDSVFLFPPKPKDTLMISRTPEVTCVVIDLAEEDGEVKFNWYVDGVEVHNAKTKPREEQYNSTYRVVSVLTVLHQDWLNGKEYKCKVSNKALPAPIEKTISKAKGQPREPQVYTLPPSRDELTKNQVSLTCLVKGFYPSDIAVEWESNGQPENNYKTTPPVLDSDGSFFLYSKLTVDKSRWQQGNVFSCSVMHEALHNHYTQESLSLSP light: not shown
 |  |  |  |  | 5.8 | 38.1 | IL6R-P700/IL6R-L (antibody, human IgG1, kappa) heavy: QVQLQESGPGLVKPSETLSLTCAVSGHSISHDHAWSWVRQPPGEGLEWIGFISYSGITNYNPSLQGRVTISRDNSKNTLYLQMNSLRAEDTAVYYCARSLARTTAMDYWGEGTLVTVSSASTKGPSVFPLAPSSKSTSGGTAALGCLVKDYFPEPVTVSWNSGALTSGVHTFPAVLQSSGLYSLSSVVTVPSSSLGTQTYICNVNHKPSNTKVDKKVEPKSCDKTHTCPPCPAPDALGGDSVFLFPPKPKDTLMISRTPEVTCVVIDVREEDGEVKFNWYVDGVEVHNAKTKPREEQYNSTYRVVSVLTVLHQDWLNGKEYKCKVSNKALPAPIEKTISKAKGQPREPQVYTLPPSRDELTKNQVSLTCLVKGFYPSDIAVEWESNGQPENNYKTTPPVLDSDGSFFLYSKLTVDKSRWQQGNVFSCSVMHEALHNHYTQKSLSLSP light: not shown
 |  |  |  |  | 10.8 | 33.9 | IL6R-P664/IL6R-L (antibody, human IgG1, kappa, N297A) heavy: QVQLQESGPGLVKPSETLSLTCAVSGHSISHDHAWSWVRQPPGEGLEWIGFISYSGITNYNPSLQGRVTISRDNSKNTLYLQMNSLRAEDTAVYYCARSLARTTAMDYWGEGTLVTVSSASTKGPSVFPLAPSSKSTSGGTAALGCLVKDYFPEPVTVSWNSGALTSGVHTFPAVLQSSGLYSLSSVVTVPSSSLGTQTYICNVNHKPSNTKVDKKVEPKSCDKTHTCPPCPAPDLLGGDSVFLFPPKPKDTLMISRTPEVTCVVIDVAEEDGEVKFNWYVDGVEVHNAKTKPREEQYASTYRVVSVLTVLHQDWLNGKEYKCKVSNKALPAPIEKTISKAKGQPREPQVYTLPPSRDELTKNQVSLTCLVKGFYPSDIAVEWESNGQPENNYKTTPPVLDSDGSFFLYSKLTVDKSRWQQGNVFSCSVMHEALHNHYTQKSLSLSP light: not shown
159 | 2.7 | 19 | 400 | 1 |  |  | IL6R-BP481/IL6R-L (antibody, human IgG1, kappa, name in EU numbering, human IgG1) heavy: QVQLQESGPGLVKPSETLSLTCAVSGHSISHDHAWSWVRQPPGEGLEWIGFISYSGITNYNPSLQGRVTISRDNSKNTLYLQMNSLRAEDTAVYYCARSLARTTAMDYWGEGTLVTVSSASTKGPSVFPLAPSSKSTSGGTAALGCLVKDYFPEPVTVSWNSGALTSGVHTFPAVLQSSGLYSLSSVVTVPSSSLGTQTYICNVNHKPSNTKVDKKVEPKSCDKTHTCPPCPAPDLLGDDSVFLFPPKPKDTLMISRTPEVTCVVIDVAEEDGEVKFNWYVDGVEVHNAKTKPREEQYNSTYRVVSVLTVLHQDWLNGKEYKCKVSNKALPAPIEKTISKAKGQPREPQVYTLPPSRDELTKNQVSLTCLVKGFYPSDIAVEWESNGQPENNYKTTPPVLDSDGSFFLYSKLTVDKSRWQQGNVFSCSVMHEALHNHYTQESLSLSP light: not shown
